Common to all, as to assay: FACS
Experiment [1] addresses T1, human 4-1BB (human, UniProt Q07011 24-255).
A further experiment addresses human PD-L1 (human, UniProt Q9NZQ7 19-290).
For experiment [2], the target named is T1, human 4-1BB. This is another data set of the same source.

Read-outs that look alike come from different tables or passages of the source.

In general, EC50 refers to the midpoint of the concentration-response curve. A lower EC50 goes with higher potency in that assay.

human PD-L1, sequence (Q9NZQ7 19-290): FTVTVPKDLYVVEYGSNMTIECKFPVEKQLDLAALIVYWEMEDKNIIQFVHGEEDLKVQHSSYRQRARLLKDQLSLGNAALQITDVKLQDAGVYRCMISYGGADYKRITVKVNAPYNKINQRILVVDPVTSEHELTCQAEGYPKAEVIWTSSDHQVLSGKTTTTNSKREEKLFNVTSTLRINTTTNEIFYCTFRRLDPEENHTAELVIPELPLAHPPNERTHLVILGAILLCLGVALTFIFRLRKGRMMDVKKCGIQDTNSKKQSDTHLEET

B1: PR003551 (bispecific antibody)
light: DIQMTQSPSTLSASVGDRVTVTCRASQSIYIWLAWYQQKPGKAPNLLIYKASSLETGVPSRFSGSGSGTEFTLTISSLQPDDFATYYCQQYYGSSRTFGQGTKVEIKRTVAAPSVFIFPPSDEQLKSGTASVVCLLNNFYPREAKVQWKVDNALQSGNSQESVTEQDSKDSTYSLSSTLTLSKADYEKHKVYACEVTHQGLSSPVTKSFNRGEC
heavy: EVQLVESGGGLVQPGGSLRLSCAASGFTFSSYWMSWVRQAPGKGLEWVANIKQEGSEKYYVDSVKGRFTISRDNAKNSLYLQMNSLRAEDTAVYYCARDRAVAGAFDIWGQGTMVTVSSASTKGPSVFPLAPSSKSTSGGTAALGCLVKDYFPEPVTVSWNSGALTSGVHTFPAVLQSSGLYSLSSVVTVPSSSLGTQTYICNVNHKPSNTKVDKKVEPKSCDKTHTCPPCPAPEAAGGPSVFLFPPKPKDTLMISRTPEVTCVVVDVSHEDPEVKFNWYVDGVEVHNAKTKPREEQYNSTYRVVSVLTVLHQDWLNGKEYKCKVSNKALGAPIEKTISKAKGQPREPQVYTLPPSREEMTKNQVSLTCLVKGFYPSDIAVEWESNGQPENNYKTTPPVLDSDGSFFLYSKLTVDKSRWQQGNVFSCSVMHEALHNHYTQKSLSLSPGEPKSSDKTHTPPPPPRTEVQLLESGGGLVQPGGSLRLSCAASGFIFSNFAMTWVRQPPEKGLKWVSSINGSGFNTYYTDSVKGRFTISRDNSRNTLYLQMNRLTAEDTAVYFCAKEGSSETDDHYYNVDVWGQGTTVTVSS
Consider B1, for which the EC50 in the experiment with human 4-1BB [1] was found to be 3.15 nM; with human PD-L1, 1.29 nM.

B2: PR003562 (bispecific antibody)
light: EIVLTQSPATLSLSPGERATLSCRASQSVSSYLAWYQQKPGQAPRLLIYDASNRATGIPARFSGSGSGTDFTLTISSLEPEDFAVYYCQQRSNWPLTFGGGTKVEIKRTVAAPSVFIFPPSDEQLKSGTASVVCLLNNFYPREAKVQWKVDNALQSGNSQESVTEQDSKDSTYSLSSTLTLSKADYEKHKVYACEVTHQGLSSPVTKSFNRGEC
heavy: EVQLLESGGGLVQPGGSLRLSCAASGFTFSSFVMSWVRQAPGKGLEWVSTISGSGRSTYYADSVKGRFTISRDNSKNTLHLQMNSLRAEDTAVYYCAKDAAAAGTKFDYWGQGTLVTVSSASTKGPSVFPLAPSSKSTSGGTAALGCLVKDYFPEPVTVSWNSGALTSGVHTFPAVLQSSGLYSLSSVVTVPSSSLGTQTYICNVNHKPSNTKVDKKVEPKSCDKTHTCPPCPAPEAAGGPSVFLFPPKPKDTLMISRTPEVTCVVVDVSHEDPEVKFNWYVDGVEVHNAKTKPREEQYNSTYRVVSVLTVLHQDWLNGKEYKCKVSNKALGAPIEKTISKAKGQPREPQVYTLPPSREEMTKNQVSLTCLVKGFYPSDIAVEWESNGQPENNYKTTPPVLDSDGSFFLYSKLTVDKSRWQQGNVFSCSVMHEALHNHYTQKSLSLSPGEPKSSDKTHTPPPPPRTEVQLLESGGGLVQLGGSLRLSCAASGFTFSRYAMTWVRQAPEKGLEWVSSISGSGDDTYYGDSVKGRFTISRDNSQNTVYLQMNSLRAEDTAVYFCAKEKAGTTGDYYYNVDVWGQGTTVTVSS
The molecule B2 came in with a half-maximal effective concentration (EC50) with human 4-1BB [2] of 1.87 nM.

B3: PR003563 (bispecific antibody)
light: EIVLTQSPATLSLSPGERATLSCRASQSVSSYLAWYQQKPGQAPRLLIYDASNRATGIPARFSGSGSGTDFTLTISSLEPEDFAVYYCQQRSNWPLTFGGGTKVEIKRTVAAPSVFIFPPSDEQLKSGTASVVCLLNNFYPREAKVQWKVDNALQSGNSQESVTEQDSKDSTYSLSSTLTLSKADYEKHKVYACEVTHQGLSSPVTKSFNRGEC
heavy: EVQLLESGGGLVQPGGSLRLSCAASGFTFSSFVMSWVRQAPGKGLEWVSTISGSGRSTYYADSVKGRFTISRDNSKNTLHLQMNSLRAEDTAVYYCAKDAAAAGTKFDYWGQGTLVTVSSASTKGPSVFPLAPSSKSTSGGTAALGCLVKDYFPEPVTVSWNSGALTSGVHTFPAVLQSSGLYSLSSVVTVPSSSLGTQTYICNVNHKPSNTKVDKKVEPKSCDKTHTCPPCPAPEAAGGPSVFLFPPKPKDTLMISRTPEVTCVVVDVSHEDPEVKFNWYVDGVEVHNAKTKPREEQYNSTYRVVSVLTVLHQDWLNGKEYKCKVSNKALGAPIEKTISKAKGQPREPQVYTLPPSREEMTKNQVSLTCLVKGFYPSDIAVEWESNGQPENNYKTTPPVLDSDGSFFLYSKLTVDKSRWQQGNVFSCSVMHEALHNHYTQKSLSLSPGEPKSSDKTHTPPPPPRTEVQLVESGGGVVQPGGSLRLSCAASGFTFSNYAMTWVRQAPEKGLEWVSSISGSGVSTYYADSVKGRFTISRDNSKNTLYLQMTRLTAEDTAVYFCAKEGSSETDDHYYNVDVWGQGTTVTVSS
In turn, B3 displayed a half-maximal effective concentration (EC50) with human 4-1BB [2] of 1.65 nM.

These data come from US20230303698A1 (published 2023).
